One may read the pKa as the pH at which an ionisable group is half protonated. One may read the stoichiometry N as the number of molecules, sites or subunits per partner or assembly.

One data set has as its target T1, BR (Halobacterium salinarum, UniProt P02945).
T1 construct: gene bop; native BR from Hs by sucrose density gradient; text also mentions Ni-NTA purification and a vector-cloned BR from E. coli
T1 sequence (P02945 14-262): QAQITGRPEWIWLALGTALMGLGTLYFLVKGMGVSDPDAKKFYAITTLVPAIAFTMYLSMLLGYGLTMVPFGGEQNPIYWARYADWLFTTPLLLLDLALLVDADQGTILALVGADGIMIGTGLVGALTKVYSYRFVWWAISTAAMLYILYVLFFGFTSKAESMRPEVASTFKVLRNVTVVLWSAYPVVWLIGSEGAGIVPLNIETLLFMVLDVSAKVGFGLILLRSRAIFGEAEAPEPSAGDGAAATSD
Briefly: HPLC of chromophore extracted from purified protein. In kind it is binding. The following applies: covalent; Schiff base to Lys216; dark- and light-adapted; 0.05% DDM, 10 mM HEPES, pH 7.5.

The next data set deals with Asp95 (UniProt position 95, YARYADWLFTT). Briefly: UV-vis. Conditions: not stated (six-component buffer said to keep ionic strength constant); citric acid/MES/HEPES/MOPS/CHES/CAPS, each 10 mM; retinal-bound, detergent-solubilised trimer; steady-state titration; light or dark adaptation state not stated.
For data set [1], the target named is Bacteriorhodopsin (Halobacterium salinarum) (UniProt P02945). The experiment in a line: SEC; Superdex 200 10/300 GL, 25 °C, 10 mM HEPES pH 7.5, 100 mM NaCl, 0.05% DDM, 0.5 mL/min, detection at 280 and 560 nm; apparent mass from calibration standards, trimer deduced after allowing for bound DDM. On the technique in general: In gel filtration, larger molecules generally elute earlier.

Data set [2] addresses Halorubrum sp. Ejinoor Archaerhodopsin (Halorubrum sp. Ejinoor). Described as above.
A further data set has as its target Asp85 (UniProt position 98, WARYADWLFTT). The following applies: cited from earlier work.

Turning to `CC1=C(/C=C/C(C)=C/C=C/C(C)=C/C=O)C(C)(C)CCC1` [All-trans retinal], the “HPLC of chromophore extracted from purified protein” value on BR is “both HeAR and BR contain only two retinal chromophore isomers: All-trans and 13-cis”.
“Archaerhodopsin HeAR (Halorubrum sp. Ejinoor)” came in with a pKa with Asp95 of 3.5 ± 0.1.
“Bacteriorhodopsin (from UniProt P02945 14-262) (natural protein)”: the stoichiometry N in data set [1] came out at 3.
On to “Halorubrum sp. Ejinoor Archaerhodopsin (natural protein)”, for which the stoichiometry N in data set [2] was found to be 3.
In the case of `CC1=C(/C=C/C(C)=C/C=C/C(C)=C\C=O)C(C)(C)CCC1` [13-cis retinal], the “HPLC of chromophore extracted from purified protein” value at BR was “both HeAR and BR contain only two retinal chromophore isomers: All-trans and 13-cis”.
Turning to “Bacteriorhodopsin (BR) (Halobacterium salinarum)”, the pKa with Asp85 is listed as about 2.6.

These data come from PMC12025097, “Elucidation of Expression Patterns and Functional Properties of Archaerhodopsin Derived from Halorubrum sp. Ejinoor” (Biology, 2025).
